Columns and labels:
[1] = biological target: Tth xynB3 β-xylosidase from Thermotoga thermarum DSM 5069 (Thermotoga thermarum DSM 5069); test: SEC; Superdex 200 10/30 GL column on an ÄKTA FPLC system; MW calculated from the calibration curve of the gel filtration column; oligomerization state of the purified native protein
purified protein [2] = substrate: O=[N+]([O-])c1ccc(O[C@@H]2OC[C@@H](O)[C@H](O)[C@H]2O)cc1; test: purified protein; type: biochemical, Pseudothermotoga thermarum; settings: 50 mM imidazole-potassium buffer pH 6.0, 85°C (standard conditions; text says optimal conditions)
purified protein [3] = substrate: O=[N+]([O-])c1ccc(O[C@@H]2O[C@@H](CO)[C@H](O)[C@H]2O)cc1; test: purified protein; type: biochemical, Pseudothermotoga thermarum; settings: 50 mM imidazole-potassium buffer pH 6.0, 85°C (standard conditions; text says optimal conditions)

| stoichiometry N [1] | Molecule | Km (purified protein [2]) | Km (purified protein [3]) |
| --- | --- | --- | --- |
| 5 | Tth xynB3 β-xylosidase from Thermotoga thermarum DSM 5069 (enzyme) | – | – |
| – | Tth xynB3 β-xylosidase (Pseudothermotoga thermarum DSM 5069) (protein, full length, 774 residues (2,322 bp), pET-20b NdeI/XhoI in E. coli BL21 (DE3), Ni-NTA purified after heat treatment; theoretical monomer 85,129 Da; 5-mer in solution (422,474 Da); primers […]; (N-terminal MDLYKNPNV)) MDLYKNPNVPAKVRAKDLLSKMTLEEKIAQLGSVWSYELLTEDGKFSVEKAKEILKHGIGQITRPGGATNFEPPEVAKLVNEIQKFLVENTRLGIPAIMHEECLAGYMGLGATIFPQPIGMASTWDPELVEKITSAIREDLRKLGITQGLAPVLDVARDPRWGRTEETFGESPYLVAKMGVAYVKGLQGSDITKGVVATGKHFAGYSASEGGKNWAPTNIPPRELREVFLYPFEAAVKEAGLLSIMNSYSEIDGIPCASNRELLTDILRRTWGFEGIVVSDYFAVDMLAAYHRMAKNKAEAAKYALEAGIDIELPKTDCYLHLKSLVENGIISEKLLDEAVLRVLTLKFLLGLFENPYAEGGSLNDHNDIALEASRKSIVLLKNNGILPLKNDVKIALVGPTANDVRNLLGDYSYLVHIKTLLENVNATTFNAPKFNLKKVEELVEAHLKKIPSILAEFAKRAKEIYYAKGCDITDPSREGFAEALEAAKKADVVVAVVGDRSGLTIECTSGESRDMANLKLPGVQEEFILELTKVGKPIVVVLVTGRPYSLKAFVNKVNAIVQLWLPGETGAQALAEVIFGQVNPSGKLPISFPASAGQIPVFHYVKPSGGRSCWHGNYVDEDVKPLFPFGHGLSYTTFSYTNLRIEQQEIPIAGSVKLKVDVQNTGEIYGEEVVQLYISREHASVTRPVKELKGFARVKLQPKETKTVVFEIHTDVLAYYDRDMKLVVEPGEYKVLIGSSAEDIRCQGNFKVVGEKRLVQDNRVFFTNTKIE | 270 µM | 210 µM |
